Source: the DeepSol protein solubility set

Test: soluble on expression in E. coli; label from the status in PepcDB or PDB records
In the case of “SLAHVGTWDWDITNETLAWTDETYRIFGVKPQEFKATYEAFLFYIHADDRQAVIDAVNDAINNDSSYSIKHRVIRPSGEIREVLEKGQVLRDENGKASRIIGAVLDIT”, the “soluble on expression in E. coli” value is reported as “not soluble”. In the case of “MNTQTGTGTSEVSKKLKAAIRAKLEELGVYVDDELPDYIMVMIANKKEKVQMKDDLNLFIGKSTAKFVDWLFDLFDRLQNASNKQGETSKKEEDKRKELEATAAAKEHEEKRRKEKEEHEKELQKEKEREKERQRERDREKRAEEEKRREEKRKEIQRSKRRRTRSRSNTYSDEEEHVRARGEKHDRHHHKDHRRGRSHERKIITSTIVRQASASPDKKLHSTVTVKRNIRPTGDQNIKGRGTMFLRAMNEASVSAGYGSSSKRSETHHEDDMSDVEALPSKPASTKSPKKSIRDRMSRISKTSEPPIEEDDAVVLEDFAQTGGGPQMILKLSGGREAIKKTRIQDRIVVDDGLRRGLLKRKIETASGASAGAATSEEPKSKHDRIIFDITPSRDSTPTDDSPTMQKWNGQIEIGDDSEESEDDEEAEIDAFVAEARGIARRESFRDEEDELPPTHQLSGGPYAYHHSTAAPTYIPTPLSVLSEQQNQMGGGAAKEDHHVKERCIFWPKCTKGDTCAFMHPTTNCKNFPNCTFGIRCLFIHPPCRFDRFCTKKHCPFTHHGTGGQQPGGAQLTSEFKNPLTSSRMLTVPSPFIAATAAAVEELPKPAARGALGSLAEKLAASIKKKPAPGAESEKKEEKSDENESKAEEPKAEVAPVQPKPLPDIAPLHSMVLCRYAGACRNPICHFKHPKECRFGANCRNPSCYFYHKPAGAAPTPVAAPIAAESAGAAKYKWTSATAN”, the “soluble on expression in E. coli” value is reported as “not soluble”. In the case of “MSTGSTKLRNVDAVIKKGKPFSILLLGTDTGALGRGKDFSARTDTMIVATINPKKESMTLTSIPRDTQVMIDGQSQKINAAYTIGGASGAVKSVEKLLDVPIDFYVLLNMGGLKQIINAMGGVTVTPKLTFKYGNANVKKGVKIKLNGAAALDYSRMRYDDPQGDYGRQKRQQQVIMAMVSQSNSLGSIANIEKITKKLAKNMRTDLTWNDMVALDTKYKNASHHAKSYTVQGTDATIDGLSYQVASSSERYKNSKRIRKALGLSNSNLTESVFSETASITTGSSSSSSSSSSTTTSSDTTTYGTSTTQDTTTQDQTTTQDQTTTNQYLEHHHHHH”, the “soluble on expression in E. coli” value is reported as “soluble”. In the case of “MGSDKIHHHHHHMETREAIFGRRSIRKYLDKPIEPEVLQDILEGAVMAPSAVNNQPWYFLAIKSQEQMEKLRGIFQEVSVKTKAVLEKRFPNNPEVVSETLGFLTSLGNARVCVLVFLLKPSKDYDIIAVESTSAAIQNLCLVAYDKGIGSCWMTAPLSTGFGDVLEKTFAPGKGKFIAAVTLGYPAVSPQAPKRKAGRYEII”, the “soluble on expression in E. coli” value is reported as “not soluble”. In the case of “MGVYVLNVTDNSTFKGILNISDTVTAVNDQTFDSSKDLIDYVSSQKLGDSVKVTYEEDGQTKSAEGKIITLENLEHHHHHH”, the “soluble on expression in E. coli” value is reported as “not soluble”. In the case of “APSYRVKRADIATCTEAAVVNAANARGTVGDGVCRAVAKKWPSAFKGAATPVGTIKTVMCGSYPVIHAVAPNFSATTEAEGDRELAAVYRAVAAEVNRLSLSSVAIPLLSTGVFSGGRDRLQQSLNHLFTAMDATDADVTIYCRDKSWEKKIQEAIDMRTAVELLNDDVELTTDLVRVHPDSSLVGRKGYSTTDGSLYSYFEGTKFNQAAIDMAEILTLWPRLQEANERICLYALGETMDNIGSKCPVNDSDSSTPPRTVPCLCRYAMTAERIARLRSHQVKSMVVCSSFPLPKYHVDGVQKVKCEKVLLFDPTVPSVVSPRKYAASTTDHSDRSLRGFDLDWTTDSSSTASDTMSLPSLQSCDIDSIYEPMAPIVVTADVHPEPAGIADLAADVHPEPADHVDLENPIPPPRPKRAAYLASRAAERPVPAPRKPTPAPRTAFRNKLPLTFGDFDEHEVDALASGITFGDFDDVLRLGRAGA”, the “soluble on expression in E. coli” value is reported as “not soluble”. With “MFCGRFANFIMRDVINFIKKYNNFVIIGHKDPDFDCIGSSLALSSFLSRIGKNSILLNEGPFIRKEIVPFKDKFLSEWPNIEISEYSVIILDCSILDRIGDEFIFYVKNMPTLVIDHHMSGEKLECEGYIDPFAPSTTFLIEKLIREFGHDLTKEEAWYILVGFCTDTGFFKFISRSDPEPFEMVARLVSKGISLKEVYSYIETTKSLKSIETLKLMLNSLESYWNGKVLFTFLSSSSSGKDGGVSGVNELFYMILSNVENNEILGILKEMEDGSIIVGLRSKDSFDVGKLAEDFGGGGHKNASGFRIKQGSLEIVKNRMLAYIKDNIYLLEHHHHHH” the “soluble on expression in E. coli” value was “not soluble”.
